In test [1] the target is human chaperonin TCP-1 ring complex (TRiC/CCT) (human) (UniProt P17987). The experiment in a line: cryo-EM structure.
Test [2] deals with CCT5, subunit of human TRiC (human, UniProt P48643 1-541). As to the kind of experiment: cryo-EM structure.
For test [3], the target named is T1, CCT2, subunit of human TRiC (human, UniProt P78371 1-535).
T1 sequence: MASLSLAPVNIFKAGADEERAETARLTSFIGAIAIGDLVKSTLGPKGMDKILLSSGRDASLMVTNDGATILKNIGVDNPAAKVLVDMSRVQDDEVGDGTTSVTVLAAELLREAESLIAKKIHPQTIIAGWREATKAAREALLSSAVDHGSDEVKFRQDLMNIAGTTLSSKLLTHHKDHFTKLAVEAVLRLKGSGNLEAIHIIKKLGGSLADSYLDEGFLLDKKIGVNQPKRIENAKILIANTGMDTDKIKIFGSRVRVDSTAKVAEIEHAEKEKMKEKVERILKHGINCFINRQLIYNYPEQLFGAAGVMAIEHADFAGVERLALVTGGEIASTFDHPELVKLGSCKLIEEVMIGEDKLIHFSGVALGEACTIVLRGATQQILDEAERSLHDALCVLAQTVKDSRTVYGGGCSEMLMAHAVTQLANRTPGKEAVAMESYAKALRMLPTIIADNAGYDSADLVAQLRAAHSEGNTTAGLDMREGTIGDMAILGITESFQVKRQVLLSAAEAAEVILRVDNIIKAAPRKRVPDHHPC
The experiment in a line: cross-linking.

Test [4] has as its target CCT1, subunit of human TRiC (human, UniProt P17987 1-556). As to the kind of experiment: cross-linking.

CCT1, subunit of human TRiC, sequence (P17987 whole entry): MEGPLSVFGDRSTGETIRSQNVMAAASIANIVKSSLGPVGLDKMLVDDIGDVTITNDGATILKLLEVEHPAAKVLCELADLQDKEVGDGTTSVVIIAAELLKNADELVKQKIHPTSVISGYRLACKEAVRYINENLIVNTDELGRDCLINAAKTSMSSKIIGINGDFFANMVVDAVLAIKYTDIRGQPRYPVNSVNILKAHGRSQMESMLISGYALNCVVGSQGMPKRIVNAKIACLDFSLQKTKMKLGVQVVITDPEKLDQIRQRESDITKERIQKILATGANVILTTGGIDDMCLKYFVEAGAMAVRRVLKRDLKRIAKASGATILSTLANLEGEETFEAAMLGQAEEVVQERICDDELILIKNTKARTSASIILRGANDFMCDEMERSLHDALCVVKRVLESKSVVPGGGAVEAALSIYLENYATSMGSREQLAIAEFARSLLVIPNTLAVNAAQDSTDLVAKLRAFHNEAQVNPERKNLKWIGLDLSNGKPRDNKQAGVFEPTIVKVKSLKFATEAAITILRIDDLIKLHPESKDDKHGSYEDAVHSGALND
CCT5, subunit of human TRiC, sequence (P48643 whole entry): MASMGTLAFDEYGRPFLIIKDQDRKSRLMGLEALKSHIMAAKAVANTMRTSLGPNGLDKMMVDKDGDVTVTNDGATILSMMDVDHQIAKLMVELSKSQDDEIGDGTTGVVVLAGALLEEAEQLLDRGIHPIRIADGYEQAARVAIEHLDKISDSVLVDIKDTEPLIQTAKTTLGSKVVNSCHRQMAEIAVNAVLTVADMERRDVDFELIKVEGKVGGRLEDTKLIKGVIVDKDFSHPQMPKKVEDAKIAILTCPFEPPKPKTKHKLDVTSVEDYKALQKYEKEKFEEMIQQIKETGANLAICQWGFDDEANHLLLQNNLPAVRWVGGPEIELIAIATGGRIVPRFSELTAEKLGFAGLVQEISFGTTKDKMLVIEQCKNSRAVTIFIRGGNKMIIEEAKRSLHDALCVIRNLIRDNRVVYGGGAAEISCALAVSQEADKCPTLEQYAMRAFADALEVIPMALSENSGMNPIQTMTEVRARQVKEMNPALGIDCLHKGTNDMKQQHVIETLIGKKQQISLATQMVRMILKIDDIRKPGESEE

B1: phosducin-like protein PhLP2A, full length (natural protein)
chain: MQDPNADTEWNDILRKKGILPPKESLKELEEEAEEEQRILQQSVVKTYEDMTLEELEDHEDEFNEEDERAIEMYRRRRLAEWKATKLKNKFGEVLEISGKDYVQEVTKAGEGLWVILHLYKQGIPLCALINQHLSGLARKFPDVKFIKAISTTCIPNYPDRNLPTIFVYLEGDIKAQFIGPLVFGGMNLTRDELEWKLSESGAIMTDLEENPKKPIEDVLLSSVRRSVLMKRDSDSEGD
Regarding B1, in test [1], the percent of particles (3D classification) is 22.9%, the percent of particles with PhLP2A in both chambers was 9.5% and the percent of particles with PhLP2A in one chamber stood at 14%. In test [2], the binding result is “binds”. In addition, the binding result in test [3] was “binds”. In addition, the binding result in test [4] is reported as “binds”.

The values above are taken from PMC10071816 (bioRxiv, 2023).
